# Reference: IntAct's records for PubMed 21799911
# B1: E3 ubiquitin-protein ligase RNF146 (Homo sapiens), Q9NTX7 (parent)
# chain: MMAGCGEIDHSINMLPTNRKANESCSNTAPSLTVPECAICLQTCVHPVSLPCKHVFCYLCVKGASWLGKRCALCRQEIPEDFLDKPTLLSPEELKAASRGNGEYAWYYEGRNGWWQYDERTSRELEDAFSKGKKNTEMLIAGFLYVADLENMVQYRRNEHGRRRKIKRDIIDIPKKGVAGLRLDCDANTVNLARESSADGADSVSAQSGASVQPLVSSVRPLTSVDGQLTSPATPSPDASTSLEDSFAHLQLSGDNTAERSHRGEGEEDHESPSSGRVPAPDTSIEETESDASSDSEDVSAVVAQHSLTQQRLLVSNANQTVPDRSDRSGTDRSVAGGGTVSVSVRSRRPDGQCTVTEV
# Variants of: B1
# Conditions: with parp1_human PARP1, P09874
# Chain of parp1_human PARP1, P09874 (P09874 whole entry): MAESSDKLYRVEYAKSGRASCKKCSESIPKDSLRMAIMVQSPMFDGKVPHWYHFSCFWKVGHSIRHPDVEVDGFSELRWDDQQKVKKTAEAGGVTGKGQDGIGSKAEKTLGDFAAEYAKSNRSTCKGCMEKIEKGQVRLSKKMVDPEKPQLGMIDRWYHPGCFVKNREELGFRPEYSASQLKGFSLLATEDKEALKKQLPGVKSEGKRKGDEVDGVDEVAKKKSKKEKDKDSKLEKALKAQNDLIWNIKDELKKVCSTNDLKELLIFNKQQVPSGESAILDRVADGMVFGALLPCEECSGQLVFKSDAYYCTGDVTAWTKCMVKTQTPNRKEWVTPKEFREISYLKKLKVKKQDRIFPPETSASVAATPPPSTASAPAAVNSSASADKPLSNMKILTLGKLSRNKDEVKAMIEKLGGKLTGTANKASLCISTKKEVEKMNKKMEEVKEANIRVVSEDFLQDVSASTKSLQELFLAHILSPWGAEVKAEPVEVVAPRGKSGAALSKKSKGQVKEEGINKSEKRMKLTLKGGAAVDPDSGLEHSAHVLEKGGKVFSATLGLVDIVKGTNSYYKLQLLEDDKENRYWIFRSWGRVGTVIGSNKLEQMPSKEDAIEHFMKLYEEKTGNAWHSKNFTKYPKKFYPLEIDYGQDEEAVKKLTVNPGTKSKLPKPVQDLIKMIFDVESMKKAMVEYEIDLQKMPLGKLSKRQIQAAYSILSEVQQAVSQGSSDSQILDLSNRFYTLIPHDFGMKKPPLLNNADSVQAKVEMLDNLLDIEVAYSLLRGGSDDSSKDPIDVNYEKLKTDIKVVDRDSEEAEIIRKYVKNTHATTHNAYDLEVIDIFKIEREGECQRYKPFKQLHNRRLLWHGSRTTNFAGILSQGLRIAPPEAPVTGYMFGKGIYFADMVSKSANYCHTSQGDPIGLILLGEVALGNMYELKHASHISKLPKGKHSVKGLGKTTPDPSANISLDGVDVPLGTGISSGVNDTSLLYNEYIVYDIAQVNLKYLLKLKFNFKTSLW
row,effect of a mutation on the interaction,Variant
1,with no effect,MMAGCGEIDHSINMLPTNRKANESCSNTAPSLTVPECAICLQTCVHPVSLPCKAVFCYLCVKGASWLGKRCALCRQEIPEDFLDKPTLLSPEELKAASRGNGEYAWYYEGRNGWWQYDERTSRELEDAFSKGKKNTEMLIAGFLYVADLENMVQYRRNEHGRRRKIKRDIIDIPKKGVAGLRLDCDANTVNLARESSADGADSVSAQSGASVQPLVSSVRPLTSVDGQLTSPATPSPDASTSLEDSFAHLQLSGDNTAERSHRGEGEEDHESPSSGRVPAPDTSIEETESDASSDSEDVSAVVAQHSLTQQRLLVSNANQTVPDRSDRSGTDRSVAGGGTVSVSVRSRRPDGQCTVTEV [H54A]
